Measurements reported in publication PMC3711442 (Nucleic Acids Research, 2013).

Legend:
Experiment in all cases: pull-down
[1] = biological target: T1, GST-BsUDG S189A (Bacillus subtilis, UniProt P39615 1-225, S189A)
T1 sequence: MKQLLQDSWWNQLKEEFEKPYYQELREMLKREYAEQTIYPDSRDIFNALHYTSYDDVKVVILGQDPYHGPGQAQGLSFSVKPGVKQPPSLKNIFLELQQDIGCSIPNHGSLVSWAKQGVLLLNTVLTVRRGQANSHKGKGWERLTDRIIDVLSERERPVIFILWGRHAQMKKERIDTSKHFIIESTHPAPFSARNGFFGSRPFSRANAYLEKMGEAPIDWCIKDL

[2] = biological target: T2, GST-BsUDG R194S (Bacillus subtilis, UniProt P39615 1-225, R194S)
T2 sequence: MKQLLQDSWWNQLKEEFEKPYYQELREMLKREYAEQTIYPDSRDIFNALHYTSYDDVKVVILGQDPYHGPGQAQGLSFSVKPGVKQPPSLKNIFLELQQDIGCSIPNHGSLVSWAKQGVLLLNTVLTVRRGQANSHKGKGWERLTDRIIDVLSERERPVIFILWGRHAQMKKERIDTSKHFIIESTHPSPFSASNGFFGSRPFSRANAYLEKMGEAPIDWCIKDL

[3] = biological target: T3, GST-BsUDG, wild type (Bacillus subtilis, UniProt P39615 1-225)
T3 sequence: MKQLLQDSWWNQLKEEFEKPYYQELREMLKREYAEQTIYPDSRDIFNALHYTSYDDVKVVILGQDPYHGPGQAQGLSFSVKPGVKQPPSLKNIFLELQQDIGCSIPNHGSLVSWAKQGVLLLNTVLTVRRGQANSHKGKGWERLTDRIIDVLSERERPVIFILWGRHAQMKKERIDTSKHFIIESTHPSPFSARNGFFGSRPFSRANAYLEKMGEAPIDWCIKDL

Row | Binder | complexes formed relative to wild-type p56 [3] | also measured
1 | phage ϕ29 protein p56, wild type (natural protein, Bacillus subtilis phage ϕ29) MVQNDFVDSYDVTMLLQDDDGKQYYEYHKGLSLSDFEVLYGNTADEIIKLRLDKVL | – | reduction in p56 binding relative to wild-type GST-BsUDG [1]: 84%; reduction in p56 binding relative to wild-type GST-BsUDG [2]: 75%
2 | phage ϕ29 protein p56 H28K (natural protein, Bacillus subtilis phage ϕ29) MVQNDFVDSYDVTMLLQDDDGKQYYEYKKGLSLSDFEVLYGNTADEIIKLRLDKVL | < 10% | –
3 | phage ϕ29 protein p56 D45R (natural protein, Bacillus subtilis phage ϕ29) MVQNDFVDSYDVTMLLQDDDGKQYYEYHKGLSLSDFEVLYGNTAREIIKLRLDKVL | < 10% | –
4 | phage ϕ29 protein p56 D45S (natural protein, Bacillus subtilis phage ϕ29) MVQNDFVDSYDVTMLLQDDDGKQYYEYHKGLSLSDFEVLYGNTASEIIKLRLDKVL | – | complex formation relative to wild-type p56 [3]: ~75%
5 | phage ϕ29 protein p56 N42R (natural protein, Bacillus subtilis phage ϕ29) MVQNDFVDSYDVTMLLQDDDGKQYYEYHKGLSLSDFEVLYGRTADEIIKLRLDKVL | < 10% | –
6 | phage ϕ29 protein p56 V38E (natural protein, Bacillus subtilis phage ϕ29) MVQNDFVDSYDVTMLLQDDDGKQYYEYHKGLSLSDFEELYGNTADEIIKLRLDKVL | < 10% | –
